According to patent publication US20190255141 (published 2019):
Ends that are not written are not given here.

B1: C16-KK-C16 (peptide)
chain: Lys-Lys
modifications: not fully specified (N-terminus, C-terminus); printed as C16-KK-C16
B2: C16-KAAAK-C16 (peptide)
chain: KAAAK
modifications: not fully specified (N-terminus, C-terminus); printed as C16-KAAAK-C16
B3: C16-KAK-C16 (peptide)
chain: Lys-Ala-Lys
modifications: not fully specified (N-terminus, C-terminus); printed as C16-KAK-C16
B4: C16-KGGGK-C16 (peptide)
chain: KGGGK
modifications: not fully specified
B5: C16-KGK-C16 (peptide)
chain: Lys-Gly-Lys
modifications: not fully specified (N-terminus, C-terminus); printed as C16-KGK-C16
B6: C16-KAAAAK-C16 (peptide)
chain: KAAAAK
modifications: not fully specified
B7: C16-KAAK-C16 (peptide)
chain: KAAK
modifications: not fully specified (N-terminus, C-terminus); printed as C16-KAAK-C16

molecular target: trypsin; assay: not given

Row | Ki [µM] | Binder
1 | 84.7 | B1
2 | 40.3 | B2
3 | 15.2 | B3
4 | 11.1 | B4
5 | 41.6 | B5

molecular target: T1, human furin (human, UniProt P09958); assay: other, pH 7.0, 37C
T1 sequence (P09958 108-715): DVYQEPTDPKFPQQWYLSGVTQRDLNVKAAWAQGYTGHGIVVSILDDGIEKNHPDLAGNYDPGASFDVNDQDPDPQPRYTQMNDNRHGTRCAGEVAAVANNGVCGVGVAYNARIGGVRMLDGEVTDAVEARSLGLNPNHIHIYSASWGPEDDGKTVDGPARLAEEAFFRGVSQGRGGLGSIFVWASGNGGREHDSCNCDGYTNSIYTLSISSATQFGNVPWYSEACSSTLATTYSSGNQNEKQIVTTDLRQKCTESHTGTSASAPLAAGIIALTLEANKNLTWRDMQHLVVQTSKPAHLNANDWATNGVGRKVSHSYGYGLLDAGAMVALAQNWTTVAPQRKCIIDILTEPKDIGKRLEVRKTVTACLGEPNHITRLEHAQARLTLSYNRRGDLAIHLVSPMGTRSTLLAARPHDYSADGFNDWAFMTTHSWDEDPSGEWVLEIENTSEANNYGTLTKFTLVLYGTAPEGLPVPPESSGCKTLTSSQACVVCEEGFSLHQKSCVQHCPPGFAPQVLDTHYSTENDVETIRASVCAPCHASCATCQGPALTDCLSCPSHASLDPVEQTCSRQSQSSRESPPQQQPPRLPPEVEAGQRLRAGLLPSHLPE

Row | Ki [µM] | Binder
6 | 1.72 | B2
7 | 0.54 | B3
8 | 1.75 | B6
9 | 0.97 | B7

molecular target: T1, human furin; assay: other, pH 7.0, 37C; remark: another data set of the same source

Row | binding result | Binder
10 | no binding | B1
